Test results: patent publication US20260242478A1 (published 2026)

B1: Peptide-274 (peptide)
peptide: ITPVCKPLWMCSGL
notes: From the Peptide-180 optimisation phage library
B2: Peptide-282 (peptide)
peptide: IVVKCVPSWMCEGF
notes: as for B1
B3: Peptide-271 (peptide)
peptide: EDILCKPKWMCEGF
notes: as for B1
B4: Peptide-284 (peptide)
peptide: TEVRCTPPWMCLGF
notes: as for B1
B5: Phage-1349 (peptide)
peptide: TCSAGATWAWPLCF
notes: Clonal phage of the Peptide-92 library, tested as crude supernatant; not shown: fused to the pIII filament of the bacteriophage
B6: Phage-1351 (peptide)
peptide: TCAAGAHYPWPACL
notes: as for B5
B7: Peptide-286 (peptide)
peptide: VLKYCIPDWMCAGI
notes: as for B1
B8: Phage-1355 (peptide)
peptide: LCSAGAMWPWPTCL
notes: as for B5
B9: Peptide-283 (peptide)
peptide: TVAYCKPAWMCQGF
notes: as for B1
B10: Phage-1359 (peptide)
peptide: MCSAGAMYKWPLCL
notes: as for B5
B11: Phage-1350 (peptide)
peptide: TCAAGATYLWPTCL
notes: as for B5
B12: Phage-1356 (peptide)
peptide: LCSAGAMYSWPTCL
notes: as for B5
B13: Phage-1348 (peptide)
peptide: SCSAGAAYYWPWCL
notes: as for B5
B14: Phage-1347 (peptide)
peptide: TCSAGAHYPWPICL
notes: as for B5
B15: Peptide-285 (peptide)
peptide: VERLCTPAWMCHGF
notes: as for B1
B16: Peptide-263 (peptide)
peptide: AVKACIPEWMCIGF
notes: as for B1
B17: Peptide-268 (peptide)
peptide: VEKVCKPVWMCVGF
notes: as for B1
B18: Phage-1358 (peptide)
peptide: TCAAGAMWAWPVCL
notes: as for B5
B19: Peptide-270 (peptide)
peptide: ESRLCVPAWMCAGF
notes: as for B1
B20: Phage-1346 (peptide)
peptide: TCSAGATYEWPRCL
notes: as for B5

What was measured:
PSMA Fab [1] = molecular target: T1, PSMA Fab; assay: competition ELISA; peptide 0-100 µM with 0.3 nM PSMA Fab on plate-captured biotinylated PSMA
T1 construct: also called 006 PSMA Fab; anti-PSMA Fab

PSMA Fab [2] = molecular target: T1, PSMA Fab; assay: binding ELISA; PSMA Fab titrated on plate-captured biotinylated peptide
PSMA Fab [3] = molecular target: T1, PSMA Fab; assay: BLI (Octet); PSMA Fab on sensor-loaded biotinylated peptide, 1:1 model
[4] = molecular target: T2, Anti-CD28 Fab (SEQ ID NOs: 696, 697); assay: phage binding ELISA; biotinylated anti-CD28 Fab on neutravidin plate, clonal phage supernatant, anti-M13 HRP
T2 construct: In the phage ELISA the Fab was biotinylated and captured on neutravidin coated plates
Method: Clonal phage were harvested as crude supematants and screened via standard ELISAs. […] Prior to the addition of clonal phage, wells were incubated with blocking buffer and CD28 antigen or blocking buffer alone. Without washing or aspirating, clonal phage supematants were then added to the wells and incubated for a short time. Wells were then washed followed by detection of bound phage using a horse radish conjugated anti-M13 antibody.

[5] = molecular target: T2, Anti-CD28 Fab (SEQ ID NOs: 696, 697); assay: phage binding ELISA on captured anti-CD28 Fab; wells pre-incubated with CD28 antigen as competitor
Method: Clonal phage were harvested as crude supematants and screened via standard ELISAs. […] Prior to the addition of clonal phage, wells were incubated with blocking buffer and CD28 antigen or blocking buffer alone. Without washing or aspirating, clonal phage supematants were then added to the wells and incubated for a short time. Wells were then washed followed by detection of bound phage using a horse radish conjugated anti-M13 antibody. Clonal phage of interest were then sent for sequence analysis.

T2 sequence (VH, as listed by the source, chain 1 of 2): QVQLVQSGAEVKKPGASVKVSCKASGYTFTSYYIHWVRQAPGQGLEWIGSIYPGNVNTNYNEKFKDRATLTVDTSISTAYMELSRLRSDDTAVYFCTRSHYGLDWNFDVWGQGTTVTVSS
T2 sequence (VL, as listed by the source, chain 2 of 2): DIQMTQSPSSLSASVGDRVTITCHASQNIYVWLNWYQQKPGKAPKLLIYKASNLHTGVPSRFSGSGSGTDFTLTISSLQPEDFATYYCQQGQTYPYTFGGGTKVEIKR

| Binder | IC50 (PSMA Fab [1]) [µM] | EC50 (PSMA Fab [2]) [µM] | Off rate t1/2 (PSMA Fab [3]) [min] | Anti-CD28 Fab (SEQ ID NOs: 696, 697) signal [4] | Anti-CD28 Fab signal in the presence of CD28 [5] |
| --- | --- | --- | --- | --- | --- |
| B1 | 0.33 | 0.004 | 3.3 | – | – |
| B2 | 0.19 | 0.0092 | 1.9 | – | – |
| B3 | 0.3 | 0.0057 | 3.3 | – | – |
| B4 | 0.97 | 0.02 | 1.4 | – | – |
| B5 | – | – | – | 2.31 | 0.09 |
| B6 | – | – | – | 1.92 | 0.07 |
| B7 | 0.64 | 0.004 | 3.3 | – | – |
| B8 | – | – | – | 2.39 | 0.08 |
| B9 | 0.82 | 0.0078 | 1.4 | – | – |
| B10 | – | – | – | 2.32 | 0.05 |
| B11 | – | – | – | 1.68 | 0.06 |
| B12 | – | – | – | 2.39 | 0.12 |
| B13 | – | – | – | 1.9 | 0.09 |
| B14 | – | – | – | 1.78 | 0.07 |
| B15 | 0.71 | 0.025 | 1.1 | – | – |
| B16 | 0.62 | 0.0084 | 2.3 | – | – |
| B17 | 0.25 | 0.0051 | 3 | – | – |
| B18 | – | – | – | 2.32 | 0.09 |
| B19 | 0.7 | 0.0173 | 1.4 | – | – |
| B20 | – | – | – | 1.84 | 0.06 |
